*1 amine or outer side, *2 acyl side, *3 side chain or, on linkers, in order; H or OH if unused. Where a SMILES comes first, the peptide text is derived from it. The star is where a group is joined. pNA = O=[N+]([O-])c1ccc(N*)cc1; Suc = O=C(CCC(=O)[*:2])[*:1]
T1: B. amyloliquefaciens subtilisin, wild type (gly-166) (Bacillus amyloliquefaciens, UniProt P00782)
T1 construct: codons for the mature subtilisin corresponding to that secreted by the B. amyloliquefaciens; made in house; host or cells: Bacillus subtilis BG2036 (protease deficient), plasmid pS4-5
T1 sequence (P00782 108-382): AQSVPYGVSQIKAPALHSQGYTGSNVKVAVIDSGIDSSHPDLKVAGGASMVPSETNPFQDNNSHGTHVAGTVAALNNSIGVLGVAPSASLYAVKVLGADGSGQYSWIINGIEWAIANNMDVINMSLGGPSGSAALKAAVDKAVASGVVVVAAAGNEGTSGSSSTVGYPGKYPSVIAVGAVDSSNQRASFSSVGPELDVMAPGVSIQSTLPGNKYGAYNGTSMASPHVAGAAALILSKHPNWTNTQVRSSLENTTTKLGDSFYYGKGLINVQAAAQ


What was measured:
Assay in all cases: Kinetic parameters from progress curves, p-nitroanilide substrates
[1] = target: T1, B. amyloliquefaciens subtilisin, wild type (gly-166); type: biochemical; conditions: 25° C., 0.1M tris buffer, pH 8.6
Protocol: (§1) B. subtilis strain BG2036 obtained by the method of Example 11 was transformed by the plasmids of Examples 14, 15 or 20 and by pS4-5 as a control. Transformants were plated or cultured in shaker flasks for 16 to 48 h at 37° C. in LB media plus 12.5 μg/ml chloramphenicol. Mutant enzymatically active subtilisin was recovered by dialyzing cell broth against 0.01M sodium phosphate buffer, pH 6.2. The dialyzed broth was then titrated to pH 6.2 with 1N HCl and loaded on a 2.5×2 cm column of CM cellulose (CM-52 Whatman). After washing with 0.01M sodium phosphate, pH 6.2, the subtilisins (except mutants at position +222) were eluted with the same buffer made 0.08N in NaCl. The mutant subtilisins at position +222 were each eluted with 0.1M sodium phosphate, pH 7.0. The purified mutant and wild type enzymes were then used in studies of oxidation stability, Km, Kcat, Kcat/Km ratio, pH optimum, and changes in substrate specificity.
(§2) Various mutants for glycine+166 were screened for modified Kcat, Km and Kcat/Km ratios. Kinetic parameters were obtained by analysis of the progress curves of the reactions. The rate of reaction was measured as a function of substrate concentration. Data was analyzed by fitting to the Michaelis-Menton equation using the non-linear regression algorithm of Marquardt (Marquardt, D. W. 1963, "J. Soc. Ind. Appl. Math." 11, 431-41).

[2] = substrate: C[C@H](NC(=O)CCC(=O)O)C(=O)N[C@@H](C)C(=O)N1CCC[C@H]1C(=O)N[C@@H](Cc1ccccc1)C(=O)Nc1ccc([N+](=O)[O-])cc1; type: biochemical, B. amyloliquefaciens; conditions: other: 25° C., 0.1M tris buffer, pH 8.6
Protocol: (§3) The procedure of Examples 13-14 was followed in substantial detail, except that the mutagenesis primer differed (the 37 mer shown in FIG. 13 was used), the two restriction enzymes were SacI and XmaIII rather than PstI and KpnI and the resulting constructions differed, as shown in FIG. 13.
as §1, §2

[3] = substrate: CC(C)[C@H](NC(=O)c1ccccc1)C(=O)NCC(=O)N[C@@H](CCCNC(=N)N)C(=O)Nc1ccc([N+](=O)[O-])cc1; type: biochemical; conditions: other: 25° C., 0.1M tris buffer, pH 8.6
Protocol: as §1, §2

[4] = substrate: CC(C)[C@H](NC(=O)c1ccccc1)C(=O)NCC(=O)N[C@@H](CCCNC(=N)N)C(=O)Nc1ccc([N+](=O)[O-])cc1; type: biochemical, B. amyloliquefaciens; conditions: other: 25° C., 0.1M tris buffer, pH 8.6
Protocol: as §3, §1, §2

| Molecule | Kcat [1] [s⁻¹] | Km [2] [µM] | kcat [2] [s⁻¹] | Km [3] [µM] | kcat [3] [s⁻¹] | Km [4] [µM] | kcat [4] [s⁻¹] |
| --- | --- | --- | --- | --- | --- | --- | --- |
| C[C@H](NC(=O)CCC(=O)O)C(=O)N[C@@H](C)C(=O)N1CCC[C@H]1C(=O)N[C@@H](Cc1ccccc1)C(=O)Nc1ccc([N+](=O)[O-])cc1 [sAAPFpN, succinyl-L-Alanyl-L-Alanyl-L-Prolyl-L-Phenylalanyl-p-nitroanilide] (Suc-AAPF-pNA) | 37 |  |  |  |  |  |  |
| B. amyloliquefaciens subtilisin variant ala + 166 (A166, glycine+166 substituted) (Bacillus amyloliquefaciens; G273A) (protein, codons for the mature subtilisin corresponding to that secreted by the B. amyloliquefaciens; made in house; host or cells: Bacillus subtilis BG2036 (protease deficient)) AQSVPYGVSQIKAPALHSQGYTGSNVKVAVIDSGIDSSHPDLKVAGGASMVPSETNPFQDNNSHGTHVAGTVAALNNSIGVLGVAPSASLYAVKVLGADGSGQYSWIINGIEWAIANNMDVINMSLGGPSGSAALKAAVDKAVASGVVVVAAAGNEGTSGSSSTVAYPGKYPSVIAVGAVDSSNQRASFSSVGPELDVMAPGVSIQSTLPGNKYGAYNGTSMASPHVAGAAALILSKHPNWTNTQVRSSLENTTTKLGDSFYYGKGLINVQAAAQ |  | 27 | 19 |  |  |  |  |
| B. amyloliquefaciens subtilisin variant arg + 166 (glycine+166 substituted) (Bacillus amyloliquefaciens; G273R) (protein, codons for the mature subtilisin corresponding to that secreted by the B. amyloliquefaciens; made in house; host or cells: Bacillus subtilis BG2036 (protease deficient)) AQSVPYGVSQIKAPALHSQGYTGSNVKVAVIDSGIDSSHPDLKVAGGASMVPSETNPFQDNNSHGTHVAGTVAALNNSIGVLGVAPSASLYAVKVLGADGSGQYSWIINGIEWAIANNMDVINMSLGGPSGSAALKAAVDKAVASGVVVVAAAGNEGTSGSSSTVRYPGKYPSVIAVGAVDSSNQRASFSSVGPELDVMAPGVSIQSTLPGNKYGAYNGTSMASPHVAGAAALILSKHPNWTNTQVRSSLENTTTKLGDSFYYGKGLINVQAAAQ |  | 62 | 19 |  |  |  |  |
| B. amyloliquefaciens subtilisin, wild type (gly-166) (Bacillus amyloliquefaciens) (protein, codons for the mature subtilisin corresponding to that secreted by the B. amyloliquefaciens; made in house; host or cells: Bacillus subtilis BG2036 (protease deficient), plasmid pS4-5) AQSVPYGVSQIKAPALHSQGYTGSNVKVAVIDSGIDSSHPDLKVAGGASMVPSETNPFQDNNSHGTHVAGTVAALNNSIGVLGVAPSASLYAVKVLGADGSGQYSWIINGIEWAIANNMDVINMSLGGPSGSAALKAAVDKAVASGVVVVAAAGNEGTSGSSSTVGYPGKYPSVIAVGAVDSSNQRASFSSVGPELDVMAPGVSIQSTLPGNKYGAYNGTSMASPHVAGAAALILSKHPNWTNTQVRSSLENTTTKLGDSFYYGKGLINVQAAAQ |  |  |  | 1100 | 2 |  |  |
| B. amyloliquefaciens subtilisin variant hys + 166 (glycine+166 substituted) (Bacillus amyloliquefaciens; G273H) (protein, codons for the mature subtilisin corresponding to that secreted by the B. amyloliquefaciens; made in house; host or cells: Bacillus subtilis BG2036 (protease deficient)) AQSVPYGVSQIKAPALHSQGYTGSNVKVAVIDSGIDSSHPDLKVAGGASMVPSETNPFQDNNSHGTHVAGTVAALNNSIGVLGVAPSASLYAVKVLGADGSGQYSWIINGIEWAIANNMDVINMSLGGPSGSAALKAAVDKAVASGVVVVAAAGNEGTSGSSSTVHYPGKYPSVIAVGAVDSSNQRASFSSVGPELDVMAPGVSIQSTLPGNKYGAYNGTSMASPHVAGAAALILSKHPNWTNTQVRSSLENTTTKLGDSFYYGKGLINVQAAAQ |  | 110 | 15 |  |  |  |  |
| B. amyloliquefaciens subtilisin variant asn + 166 (glycine+166 substituted) (Bacillus amyloliquefaciens; G273N) (protein, codons for the mature subtilisin corresponding to that secreted by the B. amyloliquefaciens; made in house; host or cells: Bacillus subtilis BG2036 (protease deficient)) AQSVPYGVSQIKAPALHSQGYTGSNVKVAVIDSGIDSSHPDLKVAGGASMVPSETNPFQDNNSHGTHVAGTVAALNNSIGVLGVAPSASLYAVKVLGADGSGQYSWIINGIEWAIANNMDVINMSLGGPSGSAALKAAVDKAVASGVVVVAAAGNEGTSGSSSTVNYPGKYPSVIAVGAVDSSNQRASFSSVGPELDVMAPGVSIQSTLPGNKYGAYNGTSMASPHVAGAAALILSKHPNWTNTQVRSSLENTTTKLGDSFYYGKGLINVQAAAQ |  | 140 | 26 |  |  | 120 | 1 |
| B. amyloliquefaciens subtilisin variant lys + 166 (glycine+166 substituted) (Bacillus amyloliquefaciens; G273K) (protein, codons for the mature subtilisin corresponding to that secreted by the B. amyloliquefaciens; made in house; host or cells: Bacillus subtilis BG2036 (protease deficient)) AQSVPYGVSQIKAPALHSQGYTGSNVKVAVIDSGIDSSHPDLKVAGGASMVPSETNPFQDNNSHGTHVAGTVAALNNSIGVLGVAPSASLYAVKVLGADGSGQYSWIINGIEWAIANNMDVINMSLGGPSGSAALKAAVDKAVASGVVVVAAAGNEGTSGSSSTVKYPGKYPSVIAVGAVDSSNQRASFSSVGPELDVMAPGVSIQSTLPGNKYGAYNGTSMASPHVAGAAALILSKHPNWTNTQVRSSLENTTTKLGDSFYYGKGLINVQAAAQ |  | 34 | 15 |  |  |  |  |
| B. amyloliquefaciens subtilisin variant glu + 166 (E166, glycine+166 substituted) (Bacillus amyloliquefaciens; G273E) (protein, codons for the mature subtilisin corresponding to that secreted by the B. amyloliquefaciens; made in house; host or cells: Bacillus subtilis BG2036 (protease deficient)) AQSVPYGVSQIKAPALHSQGYTGSNVKVAVIDSGIDSSHPDLKVAGGASMVPSETNPFQDNNSHGTHVAGTVAALNNSIGVLGVAPSASLYAVKVLGADGSGQYSWIINGIEWAIANNMDVINMSLGGPSGSAALKAAVDKAVASGVVVVAAAGNEGTSGSSSTVEYPGKYPSVIAVGAVDSSNQRASFSSVGPELDVMAPGVSIQSTLPGNKYGAYNGTSMASPHVAGAAALILSKHPNWTNTQVRSSLENTTTKLGDSFYYGKGLINVQAAAQ |  | 340 | 11 |  |  | 27 | 2 |
| B. amyloliquefaciens subtilisin variant asp + 166 (D166, glycine+166 substituted) (Bacillus amyloliquefaciens; G273D) (protein, codons for the mature subtilisin corresponding to that secreted by the B. amyloliquefaciens; made in house; host or cells: Bacillus subtilis BG2036 (protease deficient)) AQSVPYGVSQIKAPALHSQGYTGSNVKVAVIDSGIDSSHPDLKVAGGASMVPSETNPFQDNNSHGTHVAGTVAALNNSIGVLGVAPSASLYAVKVLGADGSGQYSWIINGIEWAIANNMDVINMSLGGPSGSAALKAAVDKAVASGVVVVAAAGNEGTSGSSSTVDYPGKYPSVIAVGAVDSSNQRASFSSVGPELDVMAPGVSIQSTLPGNKYGAYNGTSMASPHVAGAAALILSKHPNWTNTQVRSSLENTTTKLGDSFYYGKGLINVQAAAQ |  | 580 | 3 |  |  | 41 | 2 |
| B. amyloliquefaciens subtilisin variant phe + 166 (glycine+166 substituted) (Bacillus amyloliquefaciens; G273F) (protein, codons for the mature subtilisin corresponding to that secreted by the B. amyloliquefaciens; made in house; host or cells: Bacillus subtilis BG2036 (protease deficient)) AQSVPYGVSQIKAPALHSQGYTGSNVKVAVIDSGIDSSHPDLKVAGGASMVPSETNPFQDNNSHGTHVAGTVAALNNSIGVLGVAPSASLYAVKVLGADGSGQYSWIINGIEWAIANNMDVINMSLGGPSGSAALKAAVDKAVASGVVVVAAAGNEGTSGSSSTVFYPGKYPSVIAVGAVDSSNQRASFSSVGPELDVMAPGVSIQSTLPGNKYGAYNGTSMASPHVAGAAALILSKHPNWTNTQVRSSLENTTTKLGDSFYYGKGLINVQAAAQ |  | 14 | 3 |  |  |  |  |
